We go through 1 molecule from publication PMC8551079 (iScience, 2021).

This assay deals with T1, glutathione S-transferase (GST)-fused ABI5 (Arabidopsis thaliana, UniProt Q9SJN0 1-442).
T1 sequence (looked up): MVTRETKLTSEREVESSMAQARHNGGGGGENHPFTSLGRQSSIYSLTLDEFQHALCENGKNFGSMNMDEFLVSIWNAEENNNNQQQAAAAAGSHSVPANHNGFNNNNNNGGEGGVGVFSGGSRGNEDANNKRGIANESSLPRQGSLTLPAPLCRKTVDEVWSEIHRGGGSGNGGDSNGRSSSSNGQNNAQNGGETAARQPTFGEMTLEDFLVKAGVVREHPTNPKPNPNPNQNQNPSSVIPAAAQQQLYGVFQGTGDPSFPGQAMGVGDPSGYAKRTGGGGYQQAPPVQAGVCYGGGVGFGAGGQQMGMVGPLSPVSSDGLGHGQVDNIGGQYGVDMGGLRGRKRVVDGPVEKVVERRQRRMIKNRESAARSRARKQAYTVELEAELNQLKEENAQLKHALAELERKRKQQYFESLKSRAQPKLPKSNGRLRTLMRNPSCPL
As to the kind of experiment: pull-down.

B1: MYB70-His (natural protein)
chain: not shown
For the molecule B1, the binding result was “binds”.
